The text below walks through data of publication PMC8727950.

For orientation: stoichiometry N means the number of molecules, sites or subunits per partner or assembly.

The target in the test is honey bee (Apis mellifera) vitellogenin, full-length hemolymph Vg (honey bee (Apis mellifera)) (UniProt Q868N5). The test is described as follows: native gel or EMSA; BN-PAGE of purified Vg, two different amounts loaded; precast 3-12% acrylamide gels, 4 °C, 2 h at 150 V; no reducing agent in loading buffer or gel; monomer to dimer.

“honey bee (Apis mellifera) vitellogenin, full-length hemolymph Vg (from UniProt Q868N5 17-1770) (natural protein)” had a stoichiometry N of 2.
